From patent US9327008B2, “Cell-permeant peptide-based inhibitor of kinases” (Purdue Research Foundation, priority 2008, dated 2016)

Key:
Type in all cases: biochemical
MK3 = target: T1, MK3 (Homo sapiens, UniProt Q16644); test: Millipore radiometric kinase activity assay, MK3; conditions: SD of 2 samples
T1 construct: purchased Millipore (assay service)
Protocol: (§1) A commercial radiometric assay service (Millipore, Billerica, Mass.) was used to test the specificity and potency of peptides containing a coupled transduction domain and therapeutic domain, hereinafter “complete peptides”). In these assays, if the kinase is not inhibited by an inhibitor peptide, a positively charged substrate is phosphorylated with a radiolabeled phosphate group from an ATP.
(§2) IC50 values for inhibitor peptides were determined using Millipore's IC50Profiler Express service. The IC50 value was estimated from a 10-point curve of one-half log dilutions. For peptides tested for specificity, the concentration of the peptides that inhibited approximately 95% of MK2 activity was chosen to profile against a battery of kinases related to MK2, cell viability, or human disease from MilliporeKinaseProfiler service. In both assays, compounds were supplied in dimethylsulfoxide (DMSO). Every kinase activity measurement was conducted in duplicate.
(§3) Additional therapeutic inhibitor peptide variants were assayed for activity against several human kinases representative of several families of kinases. These kinases included: MK2; MK3; CaMKI (calcium/calmodulin-dependent protein kinase); PRAK (p38 regulated/activated protein kinase, also known as mitogen-activated protein kinase activated protein kinase 5 (MAPKAPK5)); SAPK2a (p38α); IRAK4 (IL-1 receptor (IL-1R)-associated kinase); MLCK (myosin light chain kinase); PKBβ (protein kinase B); PCKδ (protein kinase C); and ROCK-I (Rho-associated serine/threonine kinase).

CaMKI = target: T2, CaMKI (Homo sapiens, UniProt Q14012); test: Millipore radiometric kinase activity assay, CaMKI (h); conditions: for CaMK1 Kinase Activity: peptide inhibitor 300 μM, SD of 2 samples
T2 construct: purchased Millipore (assay service)
Protocol: as §1
(§4) In a final reaction volume of 25 μL, CaMKI (h) (5-10 mU) is incubated with 8 mM MOPS pH 7.0, 0.2 mM EDTA, 0.5 mM CaCl2, 16 μg/mL calmodulin, 250 μM […] [SEQ ID NO: 52], 10 mM MgAcetate and [γ-^33P-ATP] (specific activity approx. 500 cpm/pmol, concentration as required). The reaction is initiated by the addition of the MgATP mix. After incubation for 40 minutes at room temperature, the reaction is stopped by the addition of 5 μL of a 3% phosphoric acid solution. 10 μL of the reaction is then spotted onto a P30 filtermat and washed three times for 5 minutes in 75 mM phosphoric acid and once in methanol prior to drying and scintillation counting.
as §2
(§5) Therapeutic inhibitor peptides were assayed for activity against human kinases related to MK2, cell viability, or human disease. The assays were performed using concentrations of therapeutic inhibitor peptides that yielded 2% to 8% of normal MK2 activity. Error is reported as the standard deviation between 2 samples, and “c” is rat AMPK whereas all other kinases used are human kinases.
as §3

PKBβ = target: T3, PKBβ (Homo sapiens, UniProt P31751); test: Millipore radiometric kinase activity assay, PKBβ (h); conditions: for PKBβ Kinase Activity: peptide inhibitor 300 μM, SD of 2 samples
T3 construct: purchased Millipore (radiometric assay service)
T3 sequence (P31751 whole entry): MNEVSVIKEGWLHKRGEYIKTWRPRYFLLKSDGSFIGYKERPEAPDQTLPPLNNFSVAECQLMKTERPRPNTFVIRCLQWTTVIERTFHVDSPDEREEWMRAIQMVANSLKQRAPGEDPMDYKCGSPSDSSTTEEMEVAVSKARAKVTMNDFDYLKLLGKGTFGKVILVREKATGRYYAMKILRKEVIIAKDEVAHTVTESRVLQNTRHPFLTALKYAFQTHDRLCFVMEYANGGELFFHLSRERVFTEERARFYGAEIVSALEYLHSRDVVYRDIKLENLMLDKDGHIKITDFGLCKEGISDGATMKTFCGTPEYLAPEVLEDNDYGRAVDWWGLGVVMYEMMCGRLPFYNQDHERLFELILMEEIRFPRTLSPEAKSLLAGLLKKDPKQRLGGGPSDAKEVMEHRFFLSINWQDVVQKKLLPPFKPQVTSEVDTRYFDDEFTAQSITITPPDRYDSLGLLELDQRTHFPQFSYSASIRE
Protocol: as §1
In a final reaction volume of 25 μL, […] (5-10 mU) is incubated with 8 mM MOPS pH 7.0, 0.2 mM EDTA, 30 μM […] [SEQ ID NO: 60], 10 mM MgAcetate and ['y-^33P-ATP] (specific activity approx. 500 cpm/pmol, concentration as required). The reaction is initiated by the addition of the MgATP mix. After incubation for 40 minutes at room temperature, the reaction is stopped by the addition of 5 μL it of a 3% phosphoric acid solution. 10 μL of the reaction is then spotted onto a P30 filtermat and washed three times for 5 minutes in 75 mM phosphoric acid and once in methanol prior to drying and scintillation counting.
as §2, §5, §3

PKCδ = target: T4, PKCδ (Homo sapiens, UniProt Q05655); test: Millipore radiometric kinase activity assay, PKCδ (h); conditions: for PKCδ Kinase Activity: peptide inhibitor 300 μM, SD of 2 samples
T4 construct: purchased Millipore (radiometric assay service)
T4 sequence (Q05655 whole entry): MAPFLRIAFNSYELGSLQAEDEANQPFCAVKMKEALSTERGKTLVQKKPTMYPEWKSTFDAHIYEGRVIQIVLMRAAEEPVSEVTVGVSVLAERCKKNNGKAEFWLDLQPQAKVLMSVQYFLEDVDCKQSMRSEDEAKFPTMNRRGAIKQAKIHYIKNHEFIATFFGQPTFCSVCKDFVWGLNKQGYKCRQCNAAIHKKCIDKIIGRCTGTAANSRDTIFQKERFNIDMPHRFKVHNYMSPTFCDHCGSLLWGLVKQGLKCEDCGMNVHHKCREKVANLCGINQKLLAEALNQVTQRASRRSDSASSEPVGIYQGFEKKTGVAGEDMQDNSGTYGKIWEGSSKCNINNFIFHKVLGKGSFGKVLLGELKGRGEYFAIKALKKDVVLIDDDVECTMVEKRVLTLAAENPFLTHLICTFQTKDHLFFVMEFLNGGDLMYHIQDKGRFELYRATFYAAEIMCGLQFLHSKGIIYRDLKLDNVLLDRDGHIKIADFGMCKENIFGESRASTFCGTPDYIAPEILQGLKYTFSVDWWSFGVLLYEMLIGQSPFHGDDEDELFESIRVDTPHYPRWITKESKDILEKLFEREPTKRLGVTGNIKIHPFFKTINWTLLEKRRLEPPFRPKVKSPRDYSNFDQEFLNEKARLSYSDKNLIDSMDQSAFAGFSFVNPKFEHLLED
Protocol: as §1
as §4, with “PKCδ” for “CaMKI”, “20” for “8”, “HEPES” for “MOPS”, “7.4, 0.03% Triton X-100, 0.1 mg/mL phosphatidylserine, 10” for “7.0, 0.2 mM EDTA, 0.5 mM CaCl2, 16”, “diacylglycerol, 50” for “calmodulin, 250”, “61],” for “52],”
as §2, §5, §3

SAPK2a (p38α) = target: T5, SAPK2a (p38α) (Homo sapiens, UniProt Q16539); test: Millipore radiometric kinase activity assay, SAPK2a (h); conditions: for SAPK2a (p38α) Kinase Activity: peptide inhibitor 300 μM, SD of 2 samples
T5 construct: purchased Millipore (radiometric assay service)
T5 sequence (Q16539 whole entry): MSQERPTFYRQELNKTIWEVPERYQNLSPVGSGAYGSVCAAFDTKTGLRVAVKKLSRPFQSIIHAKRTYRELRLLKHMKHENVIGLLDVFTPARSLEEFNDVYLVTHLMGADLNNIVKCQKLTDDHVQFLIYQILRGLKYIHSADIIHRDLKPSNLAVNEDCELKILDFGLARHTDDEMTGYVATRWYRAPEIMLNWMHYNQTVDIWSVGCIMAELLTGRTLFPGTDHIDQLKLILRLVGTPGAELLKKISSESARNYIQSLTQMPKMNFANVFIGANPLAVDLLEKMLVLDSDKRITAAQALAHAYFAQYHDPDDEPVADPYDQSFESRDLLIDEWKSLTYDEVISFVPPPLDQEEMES
Protocol: as §1
In a final reaction volume of 25 μL, SAPK2a (h) (5-10 mU) is incubated with 25 mM Tris pH 7.5, 0.02 mM EGTA, 0.33 mg/mL myelin basic protein, 10 mM MgAcetate and [γ-^33P-ATP] (specific activity approx. 500 cpm/pmol, concentration as required). The reaction is initiated by the addition of the MgATP mix. After incubation for 40 minutes at room temperature, the reaction is stopped by the addition of 5 μL of a 3% phosphoric acid solution. 10 μL of the reaction is then spotted onto a P30 filtermat and washed three times for 5 minutes in 75 mM phosphoric acid and once in methanol prior to drying and scintillation counting.
as §2, §5, §3

MK2 = MK2 (Homo sapiens, UniProt P49137); test: Millipore radiometric IC50 and kinase activity assay, MK2; parameters: purchased Millipore (assay service); conditions: for MK2 Kinase Activity: SD of 2 samples
Sequence of MK2 (P49137 whole entry): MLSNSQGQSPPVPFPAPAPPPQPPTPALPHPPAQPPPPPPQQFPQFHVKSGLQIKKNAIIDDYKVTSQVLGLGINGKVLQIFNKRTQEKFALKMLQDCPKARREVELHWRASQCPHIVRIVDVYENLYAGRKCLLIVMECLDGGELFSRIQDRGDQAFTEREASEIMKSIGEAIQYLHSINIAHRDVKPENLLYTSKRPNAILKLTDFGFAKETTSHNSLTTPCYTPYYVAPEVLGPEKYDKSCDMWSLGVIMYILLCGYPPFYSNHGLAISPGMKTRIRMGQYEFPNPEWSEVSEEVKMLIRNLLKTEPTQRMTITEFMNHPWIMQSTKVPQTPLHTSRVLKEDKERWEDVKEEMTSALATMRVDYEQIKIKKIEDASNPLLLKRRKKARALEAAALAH
Protocol: as §1, §2, §5, §3

[1] = peptide 30 μM, listed as WLRRIKAWLRRI-
[2] = peptide 100 μM, listed as KAFAKLAARLYRLARQLGVAA

T1 sequence (Q16644 whole entry): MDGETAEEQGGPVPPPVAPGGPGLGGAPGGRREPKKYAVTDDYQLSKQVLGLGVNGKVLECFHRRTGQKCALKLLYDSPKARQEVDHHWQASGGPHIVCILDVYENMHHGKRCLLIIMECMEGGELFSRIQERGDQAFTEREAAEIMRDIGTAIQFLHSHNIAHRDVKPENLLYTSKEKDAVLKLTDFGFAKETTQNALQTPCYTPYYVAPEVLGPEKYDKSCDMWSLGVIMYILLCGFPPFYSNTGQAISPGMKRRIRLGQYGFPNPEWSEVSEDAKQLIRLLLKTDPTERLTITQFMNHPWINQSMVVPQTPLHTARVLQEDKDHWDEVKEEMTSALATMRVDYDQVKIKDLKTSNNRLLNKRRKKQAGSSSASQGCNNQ

Sequence | MK3 Kinase Activity (MK3; peptide inhibitor 300 μM) | CaMK1 Kinase Activity (CaMKI) | PKBβ Kinase Activity (PKBβ) | PKCδ Kinase Activity (PKCδ) | SAPK2a (p38α) Kinase Activity (SAPK2a (p38α)) | MK2 Kinase Activity (MK2; peptide inhibitor 300 μM) | CaMKI Kinase Activity (%) (+SD %) (CaMKI; peptide 100 μM) | PKBβ Kinase Activity (%) (+SD %) (PKBβ; peptide 100 μM) | PKCδ Kinase Activity (%) (+SD %) (PKCδ; peptide 100 μM) | SAPK2a Kinase Activity (%) (+SD %) (SAPK2a (p38α); peptide 100 μM) | MK3 Kinase Activity (MK3; peptide inhibitor 100 μM) | MK2 Kinase Activity (MK2; peptide inhibitor 100 μM) | other results
YARAAARQARAKALARQLGVAA | 5(1) % | 2(0) % | 17(2) % | 101(3) % | 66(3) % | −7(0) % |  |  |  |  |  |  | 
WLRRIKAWLRRIKALNRQLGVAA |  |  |  |  |  |  | 0 (2) % | 16 (5) % | 40 (2) % | 30 (6) % |  |  | MK3 Kinase Activity (MK3; peptide inhibitor 30 μM): 16(2) %; CaMKI Kinase Activity (%) (+SD %) (CaMKI; peptide 30 μM): 9(1) %; CaMKI Kinase Activity (%) (+SD %) (CaMKI; [1]): 9 (1) %; PKBβ Kinase Activity (%) (+SD %) (PKBβ; peptide 30 μM): 18(2) %; PKBβ Kinase Activity (%) (+SD %) (PKBβ; [1]): 18 (2) %; PKCδ Kinase Activity (%) (+SD %) (PKCδ; peptide 30 μM): 11(0) %; PKCδ Kinase Activity (%) (+SD %) (PKCδ; [1]): 11 (0) %; SAPK2a Kinase Activity (%) (+SD %) (SAPK2a (p38α); peptide 30 μM): 61(7) %; SAPK2a Kinase Activity (%) (+SD %) (SAPK2a (p38α); [1]): 61 (7) %; MK2 Kinase Activity (MK2; peptide inhibitor 30 μM): 2(1) %; fold lower IC50 than the therapeutic inhibitor peptide incorporating PTD YARAAARQARA (FIG. 2) (MK2; same therapeutic domain KALNRQLGVAA): greater than 30 fold
FAKLAARLYRKALARQLGVAA |  |  |  |  |  |  | 0(2) % | 16(5) % | 40(2) % | 30(6) % | 10(1) % | 5(2) % | inhibition of SAPK2a activity (in words) (SAPK2a (p38α); Table 5, 100 μM): inhibited activity of SAPK2a
YARAAARQARAKALNRQLGVAA | 19(3) % | 8(1) % | 96(1) % | 105(2) % | 100(6) % | 10(3) % |  |  |  |  |  |  | 
KAFAKLAARLYRKALARQLGVAA |  |  |  |  |  |  | 0 (2) % | 28 (4) % | 24 (3) % | 59 (8) % | 17(1) % | 8(1) % | CaMKI Kinase Activity (%) (+SD %) (CaMKI; [2]): 0(2) %; PKBβ Kinase Activity (%) (+SD %) (PKBβ; [2]): 28(4) %; PKCδ Kinase Activity (%) (+SD %) (PKCδ; [2]): 24(3) %; SAPK2a Kinase Activity (%) (+SD %) (SAPK2a (p38α); [2]): 59(8) %
